Assay results taken from the supplement of paper PMC12636428.

These sequences were tested on Saccharomyces cerevisiae (assay: transcriptional activation domain activity (GFP:mCherry ratio, weighted mean of sorted bins, harmonized to initial dataset scale) (arbitrary fluorescence ratio units); higher = stronger transcriptional activation). Details: beta-estradiol 1 µM; induction time 4 h.
In short: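 For this assay, yeast diploids with a GFP reporter carried barcoded protein tiles at URA3, each fused to an estradiol-inducible synthetic transcription factor. Induction was a 1:5 dilution into SC with 1 uM beta-estradiol for 4 hours at 30 °C, followed by sorting into 8 bins by GFP:mCherry ratio and barcode sequencing. Tiles under 50 reads were dropped, and activation activity was calculated as the read-weighted mean of bin median fluorescence, averaged across barcodes and linearly mapped onto the initial dataset scale.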

First: LRCVGFILYLLLLIGKIMAFKEIDLLQEHQNFWAKVIYNARGSNRSWDWLSMI
Second: KPKVKKDADDDAMDVDEEEKPKPKPKPRPKPKATSSPKEGEEDEPAKKKLKTS
The “transcriptional activation domain activity” value of the first is higher: 59600 for the first, 51400 for the second.

Compared with “SADDSAGEARQREKSEESGTRRSRKSHDRESKEGAEGADEAESWERSSKKKSR”, “IDHTDIHAHHADAHDDSFIESEEWLSKFIMDSQIDNDLKLNINHFNDIGFNNL” is higher in “transcriptional activation domain activity” value: 29600 for the first, 154000 for the second.

First: ANHQIYLDWWYTWCLAYFMDTHRDVCIVLKKSLKWVPIFGWAMHQFFNFIFLA
Second: MYLWVLLQKVGLLLLLLLLLLLLLLLLLLHWLLHLLLLLLLLLLLLYQVCLQW
The “transcriptional activation domain activity” value of the first is higher: 41800 for the first, 23400 for the second.

Going from “RARAHRPKRGGRGRGRGTGTNAREGGGREEGKKKNRKKKTKTKTKTKTKTKKR” to “RVELLLRSFKVFTLKTGEQCLDYLGDKFRVVLNLPEDWTNTAVGAWLVQKVIL”, the “transcriptional activation domain activity” value rises from 36600 to 39700.

Compared with “EAEARGSGGGGERQRDCERQREPRATRAGGDAGARDGAGARGLARGAAGVAAM”, “SDAAVELCVAAAPRNGESNKAVVQVLSHVSTHHLHLESLLTCLSQALKIPKMD” is lower in “transcriptional activation domain activity” value: 51700 for the first, 42000 for the second.

Compared with “FSLFLLSLLPTADAFFPLLLFVSCWLTLYTFVLCLLSYFFYSLTLTLYVCLVS”, “VIEKLFWRVSALYICTHQFLLWALFMIRDYLLSKYPGSQLVLRCHMVLKIMLF” is lower in “transcriptional activation domain activity” value: 55800 for the first, 46400 for the second.

Going from “MVSMQLSKLFIFSRVRRGGFFFCPCFSLVFLLFLFCIFFFHHFFSFHISFYLP” to “RVSDYSMAQFRFLLKFLLVHGRWNYIRICKYTISTFWKELLFYLTQAMYQRWN”, the “transcriptional activation domain activity” value falls from 41400 to 28800.

Compared with “LEEYYWKTLNFTTPMYGADTPGSIFPEGLNVWNVAKLPNILDHMETKVPGVND”, “TRYCWGFINLWYSSLYLSGSIILNLAAFFLLPVHLFVSLMQTHLLQWELLLAF” is lower in “transcriptional activation domain activity” value: 88300 for the first, 59500 for the second.

Compared with “DSPVDRAMNTPLQQQEGLKAELPHDFLFQHGTDDTMYNLTDDLSSSLSSSINS”, “YLFYRLGLNIREIQLRSRGLILLQSLSVLGWSLLASSFSGLYFIGYPCFIHWW” is lower in “transcriptional activation domain activity” value: 68200 for the first, 42700 for the second.

First: PTQEVLRFCKRELMHKLWNLLMDDDFLHAYMHGIVVCCGDGVLRRLFPRIFTY
Second: MPFSVSASNILLSPFHLIFWSIRNFSNILIFLFSPFFLVLYYASYVFTPIFIP
The “transcriptional activation domain activity” value of the first is lower: 44400 for the first, 96500 for the second.

First: KGRAEKKKKSSRRRDESESEGEEGEGGGGGGGRAPPKKRARLASKKEAQSGKY
Second: RDRKKRKVDGSEDSDDSDDDGTRGKGRGKSKSKGKGKSKEKKKKSSRKSKKAE
The “transcriptional activation domain activity” value of the first is higher: 31500 for the first, under 6570 for the second.

Going from “MPEVESARPTTSSKCIVLFYLFFLPCLSPFLYFLMLTMASVPSPLGFLLLLVC” to “DPQTLSVAHRSYLRCLTQRLLLTQPTFTECMYNLLIHTDHLVALIHRLDGVWS”, the “transcriptional activation domain activity” value falls from 66100 to 38400.

Going from “ARAAAQNDDGTPKKGRGRPRKAAAAAATSDEEPAATTPKEPKKRGRKPKAVEP” to “VLQILAFAMFIICTLTLQLRLRSNPPVQCVAGVVTHYRRYFIALYCTSGLFLI”, the “transcriptional activation domain activity” value rises from 36000 to 56600.

First: MIFIYMIFIYVIFLFLYFYIFFYFLFFIFIIFICCYFIFLYYLFSYFPFFLFY
Second: SQWRGVVALKLQIVKTLMKIRMVFPGLMTGLSLEYFSVIWTELNNALPIYLNF
The “transcriptional activation domain activity” value of the first is lower: 43500 for the first, 48000 for the second.

Compared with “VAVAREPFQEGADASGKLYNKDSLDDEDSRKYVVILNAFLQMLAALDELVLVL”, “MVGLVGFWVLFLFFLCPFLFSCPLPLPPLRPSLYIFQISYGSFFFLLFFSIFF” is lower in “transcriptional activation domain activity” value: 76700 for the first, 62300 for the second.

First: MRLSRCCVFILLFFFDLVYYYPFLLLFNGFGGICIFLVLKRSHRETEFICFMQ
Second: MRGFFWQILLQTCLLPIVTCTLLPTPLMPFCALQHTPLSNLFLLLSWLYFLPY
The “transcriptional activation domain activity” value of the first is higher: 60600 for the first, 48400 for the second.

Going from “AVAAAVAAIAAVAAEIKTVPAQAQEQEQEQEQEQAQVQVQVQAQAQPQQQQQA” to “KGGSSPEEASAQSGGARSKEAKETGSSPTGGEVGKSGGKSNKSESSEEKSKDG”, the “transcriptional activation domain activity” value rises from under 6570 to 19900.

Going from “LNRAARRSTPASRTRREGAIGARVRRRERESERARARTKMGRRSCLRVSAAAT” to “IQTYEIVGLTSCSLNVVLLPFAFYLVTLCFKTSERSPLLSMLCRLFFLPLTCG”, the “transcriptional activation domain activity” value falls from 61600 to 45100.

Compared with “LYKSYKHAFHDWIYRLYYYLYHCLVELGLSSAAVDIFRACLPSVKMGNIALTY”, “RDALSGDPTAPRKRSKVSRACDECRRKKIRCDASSESGIEQCSSCKRVGSKCS” is lower in “transcriptional activation domain activity” value: 63000 for the first, 43500 for the second.

Going from “GRRRRKGEESRGRKNAEERKGGRKEGPGAGRVEAEGRAEATRTEKGEEGGSGG” to “ERPFFALVVCGEYAHLSPETRVKVAQLLLRCLPAPNLSLLVYLLSFLSHFQHA”, the “transcriptional activation domain activity” value rises from 34800 to 62200.

Going from “RFLLCLLCMELLLHFVYVGAINSSLPVWDSYTPAQLSLLSFQNLIIIWLKLLL” to “TSSSEESSNKGQRQLTVSIDSAAHHDNSTIPLDFMPRDALHGFDWSEEDDMSD”, the “transcriptional activation domain activity” value rises from 36800 to 39300.

First: EDSEPEPQPQKSQSRRRQSRGRGRRGGDSDNESVARSDVSASGGRRNRQRKQK
Second: MGFFILFYFLFSLWVCGFGFFSRLSVLYLGGFVLFLINHLSLFLYIIFFFFMF
The “transcriptional activation domain activity” value of the first is lower: 22200 for the first, 38800 for the second.

Compared with “MVLCPSSYSFPLPPFFLFFFLSSPFFFAALFFFFPFLPPNSRVCPSLFPLSLL”, “KGKGRENVPESESESEEDGDSSPPKAPVRGARGRGRGASRGRGRGRAPAPAAA” is lower in “transcriptional activation domain activity” value: 62600 for the first, under 6570 for the second.

Compared with “GAAAASGTKPKPTAAGGAAGAAAASGAKPKPTAAGAAGAAAASGAKPKPTGAA”, “TFVERVYTCLNYRIYKIKILGGTCALLIFVWYFPGFVLRNVLVGMLGHVVLSI” is higher in “transcriptional activation domain activity” value: 15300 for the first, 65400 for the second.

First: DLMMVVFGVLLSSLFFVFVFVWYCYLLLSCFLSFFLSLVVSWCWLGLHIHVYS
Second: MSSMHKLVTIFTGQGRVLSFFSLCVLRGLYYYSLLLRYLYFTLLVFFLSLFPF
The “transcriptional activation domain activity” value of the first is lower: 43500 for the first, 49100 for the second.

Compared with “MSLRRSCLIFRWHVFMLLLMLFVRTWLVRLLVFLVFVVLMVRLLSLFPPFPLS”, “VWEMCLVVGMGSELDVLYRVNNTVFVGCFCLARLTIVLLFAMSMLYLPMFRRD” is higher in “transcriptional activation domain activity” value: 32200 for the first, 61200 for the second.

Compared with “TLLASFVIDHLKEGVASDEIVLFAFADFQDTRSTNVVVLLRTLLAQLLDRCKP”, “SFFFFFSYFYLDSLFLVLLPFTLCFYLFLVLWVCWLVGWFVGWLARFALSLSL” is lower in “transcriptional activation domain activity” value: 65200 for the first, 55400 for the second.

“TNPAFANSSLPPIHSSFSTLSNPPSIFCVLPPFLPSFPLSFPFFFSFPFFLFL” was tested, and the “transcriptional activation domain activity” value was 52500.
